In article PMC6922093:

What was measured:
[1] = molecular target: RSV strain B18537 DS-Cav1 F glycoprotein (prefusion-stabilized soluble F trimer, subtype B) (RSV subtype B strain B18537 | phage T4); assay: SEC; 120 mL Superdex-200 gel filtration column in PBS buffer; single monodisperse peak compared with protein standards
[2] = molecular target: RSV strain B18537 DS-Cav1 F glycoprotein (prefusion-stabilized soluble F trimer, subtype B) (RSV subtype B strain B18537 | phage T4); assay: crystal structure; crystals in 1.2M ammonium sulfate, 0.1M sodium acetate pH5.5, 0.1M lithium sulfate; space group P4(1)32, 1 protomer per asymmetric unit; trimer by crystal symmetry

Substance: RSV strain B18537 DS-Cav1 F glycoprotein (prefusion-stabilized soluble F trimer, subtype B) (domain or fragment)
- stoichiometry N [1]: 3
- stoichiometry N [2]: 3
